Publication PMC5573325

What was measured:
[1] = target: integrin αIIbβ3 (human (endogenous in platelets)) (UniProt P08514); experiment: flow cytometry on cells; FITC-triflavin (2 µg/ml) added to resting washed human platelets (3.6 × 10^8 cells/ml) in Tyrode's solution, 3 min; no additive (positive control)
[2] = target: integrin αIIbβ3 (human (endogenous in platelets)) (UniProt P08514); experiment: flow cytometry on cells; FITC-triflavin (2 µg/ml) added to resting washed human platelets treated with 0.3 µM TQ-6
[3] = target: integrin αIIbβ3 (human (endogenous in platelets)) (UniProt P08514); experiment: flow cytometry on cells; FITC-triflavin (2 µg/ml) added to resting washed human platelets treated with 0.5 µM TQ-6

UniProt P08514, sequence (P08514 32-1039, chain 1 of 2): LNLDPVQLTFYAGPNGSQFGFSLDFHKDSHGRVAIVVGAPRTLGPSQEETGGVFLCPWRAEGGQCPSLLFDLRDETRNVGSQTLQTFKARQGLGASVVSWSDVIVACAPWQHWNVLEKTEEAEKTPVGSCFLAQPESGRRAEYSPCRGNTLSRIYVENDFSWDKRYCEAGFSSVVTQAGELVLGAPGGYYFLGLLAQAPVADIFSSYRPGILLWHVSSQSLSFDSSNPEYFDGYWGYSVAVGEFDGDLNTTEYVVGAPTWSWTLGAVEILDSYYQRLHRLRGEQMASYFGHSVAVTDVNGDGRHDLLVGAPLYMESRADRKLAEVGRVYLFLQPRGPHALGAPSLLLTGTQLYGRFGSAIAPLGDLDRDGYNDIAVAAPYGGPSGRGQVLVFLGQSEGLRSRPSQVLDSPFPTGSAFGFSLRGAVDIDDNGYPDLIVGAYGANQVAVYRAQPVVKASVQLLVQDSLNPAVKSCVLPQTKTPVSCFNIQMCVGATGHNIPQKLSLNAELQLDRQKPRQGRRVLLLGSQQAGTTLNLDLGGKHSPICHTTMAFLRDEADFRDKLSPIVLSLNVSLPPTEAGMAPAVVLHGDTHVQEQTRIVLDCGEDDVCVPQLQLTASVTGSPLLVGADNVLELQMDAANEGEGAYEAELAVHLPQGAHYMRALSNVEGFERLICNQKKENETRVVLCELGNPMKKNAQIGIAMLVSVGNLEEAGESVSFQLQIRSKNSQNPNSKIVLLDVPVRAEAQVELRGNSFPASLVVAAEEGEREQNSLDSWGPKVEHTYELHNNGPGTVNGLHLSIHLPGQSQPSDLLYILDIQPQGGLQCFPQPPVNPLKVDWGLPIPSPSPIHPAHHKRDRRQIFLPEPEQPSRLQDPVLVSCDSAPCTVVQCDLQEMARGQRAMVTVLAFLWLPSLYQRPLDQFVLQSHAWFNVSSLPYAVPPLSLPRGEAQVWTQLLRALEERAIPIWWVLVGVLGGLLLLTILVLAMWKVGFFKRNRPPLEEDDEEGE
UniProt P08514, sequence (P05106 27-788, chain 2 of 2, further chain): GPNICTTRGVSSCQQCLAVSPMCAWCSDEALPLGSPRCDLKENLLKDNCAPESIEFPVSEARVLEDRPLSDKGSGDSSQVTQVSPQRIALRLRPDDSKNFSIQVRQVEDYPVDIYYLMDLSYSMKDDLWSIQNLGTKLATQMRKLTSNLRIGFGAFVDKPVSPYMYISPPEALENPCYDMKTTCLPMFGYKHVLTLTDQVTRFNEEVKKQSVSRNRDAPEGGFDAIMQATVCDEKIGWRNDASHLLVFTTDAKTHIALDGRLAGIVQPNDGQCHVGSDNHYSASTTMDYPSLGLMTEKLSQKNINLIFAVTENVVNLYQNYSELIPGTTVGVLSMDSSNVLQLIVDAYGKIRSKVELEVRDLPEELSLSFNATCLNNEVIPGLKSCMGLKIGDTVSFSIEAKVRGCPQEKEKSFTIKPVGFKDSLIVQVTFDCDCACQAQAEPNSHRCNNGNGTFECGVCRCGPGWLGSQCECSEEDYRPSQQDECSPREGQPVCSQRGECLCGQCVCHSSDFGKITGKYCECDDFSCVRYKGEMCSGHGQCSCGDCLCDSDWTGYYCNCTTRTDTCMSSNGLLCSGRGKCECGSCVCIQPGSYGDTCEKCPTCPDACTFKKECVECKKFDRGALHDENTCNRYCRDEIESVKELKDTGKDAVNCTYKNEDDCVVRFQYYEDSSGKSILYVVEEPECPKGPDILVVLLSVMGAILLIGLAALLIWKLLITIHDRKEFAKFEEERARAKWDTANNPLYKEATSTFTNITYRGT

## triflavin (natural protein)
[1]
  relative fluorescence intensity: 1150
[2]
  relative fluorescence intensity: 1260
[3]
  relative fluorescence intensity: 1220
